These results are taken from patent publication US20120270914A1, “SPLIT-LUCIFERASE C-MYC SENSOR AND USES THEREOF” (THE BOARD OF TRUSTEES OF THE LELAND STANFORD JUNIOR …, priority 2011, published 2012).

The experiment addresses NFL-c-Myc T581 (firefly) [luciferase: P08659]. Nature of the experiment: cell-based or functional assay.

Chain of NFL-c-Myc T581 (firefly) [luciferase: P08659] (P08659 other isoform, or with tags, fused parts or gaps): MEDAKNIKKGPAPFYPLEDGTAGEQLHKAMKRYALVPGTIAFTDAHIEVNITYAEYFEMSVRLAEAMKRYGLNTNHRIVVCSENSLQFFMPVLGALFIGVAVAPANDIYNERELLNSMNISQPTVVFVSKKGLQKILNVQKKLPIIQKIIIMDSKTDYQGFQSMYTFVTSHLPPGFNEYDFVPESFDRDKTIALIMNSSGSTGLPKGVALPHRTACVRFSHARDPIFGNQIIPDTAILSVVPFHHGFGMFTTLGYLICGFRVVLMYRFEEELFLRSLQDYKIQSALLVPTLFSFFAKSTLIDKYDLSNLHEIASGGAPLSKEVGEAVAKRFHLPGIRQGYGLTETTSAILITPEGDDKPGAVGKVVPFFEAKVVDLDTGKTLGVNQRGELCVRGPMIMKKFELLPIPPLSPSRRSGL

B1: GSK 35-433-CFL, P49841 35-420 (protein, not shown: large carriers)
chain: SKVTTVVATPGQGPDRPQEVSYTDTKVIGNGSFGVVYQAKLCDSGELVAIKKVLQDKRFKNRELQIMRKLDHCNIVRLRYFFYSSGEKKDEVYLNLVLDYVPETVYRVARHYSRAKQTLPVIYVKLYMYQLFRSLAYIHSFGICHRDIKPQNLLLDPDTAVLKLCDFGSAKQLVRGEPNVSYICSRYYRAPELIFGATDYTSSIDVWSAGCVLAELLLGQPIFPGDSGVDQLVEIIKVLGTPTREQIREMNPNYTEFKFPQIKAHPWTKDSSGTGHFTSGVRVFRPRTPPEAIALCSRLLEYTPTARLTPLEACAHSFFDELRDPNVKLPNGRDTPALFNFTTQELSSNPPLATILIPPHARIQAAASTPTNATAASDANTGDRGQTNNAASASASNST
modifications: here or on the partner: phosphorylation partially abolished (T58 cannot be phosphorylated)
Consider B1, for which the complemented FL activity of SKBR3 xenografts in nude mice, normalized to hRL activity, compared with pcDNA3.1(+) vector is 4.7 fold.
